Laboratory results published in patent publication US20260022195A1.

T1: human C1s (active form) (human) (UniProt P09871)
T1 sequence 1: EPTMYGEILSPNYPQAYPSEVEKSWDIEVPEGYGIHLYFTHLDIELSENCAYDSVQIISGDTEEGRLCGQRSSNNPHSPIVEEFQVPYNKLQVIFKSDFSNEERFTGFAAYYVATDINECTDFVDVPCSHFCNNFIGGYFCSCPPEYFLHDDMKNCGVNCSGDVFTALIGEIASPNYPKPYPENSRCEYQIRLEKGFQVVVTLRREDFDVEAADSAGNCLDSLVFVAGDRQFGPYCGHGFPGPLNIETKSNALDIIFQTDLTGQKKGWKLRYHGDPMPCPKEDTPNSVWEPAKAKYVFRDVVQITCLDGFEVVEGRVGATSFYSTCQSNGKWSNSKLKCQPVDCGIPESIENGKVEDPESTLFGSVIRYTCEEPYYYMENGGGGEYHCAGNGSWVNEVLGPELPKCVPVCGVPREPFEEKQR
T1 sequence 2: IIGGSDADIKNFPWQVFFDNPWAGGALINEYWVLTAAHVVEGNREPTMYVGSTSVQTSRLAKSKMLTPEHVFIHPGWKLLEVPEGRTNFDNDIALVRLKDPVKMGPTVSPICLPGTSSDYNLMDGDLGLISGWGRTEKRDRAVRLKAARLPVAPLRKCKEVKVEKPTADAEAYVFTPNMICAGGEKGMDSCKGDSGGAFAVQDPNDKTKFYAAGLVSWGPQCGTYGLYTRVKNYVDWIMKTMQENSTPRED

B1: TNT009 (antibody, from another filing, V domains shown)
VH: EVQLVESGGGLVKPGGSLRLSCAASGFTFSNYAMSWVRQAPGKGLEWVATISSGGSHTYYLDSVKGRFTISRDNSKNTLYLQMNSLRAEDTALYYCARLFTGYAMDYWGQGTLVTVSS
VL: QIVLTQSPATLSLSPGERATMSCTASSSVSSSYLHWYQQKPGKAPKLWIYSTSNLASGVPSRFSGSGSGTDYTLTISSLQPEDFATYYCHQYYRLPPITFGQGTKLEIKR
B2: TNT020 (antibody, from another filing, V domains shown)
VH: QVQLVQSGAEVKKPGASVKLSCTASGFNIKDDYIHWVKQAPGQGLEWIGRIDPADGHTKYAPKFQVKVTITADTSTSTAYLELSSLRSEDTAVYYCARYGYGREVFDYWGQGTTVTVSS
VL: DIVLTQSPDSLAVSLGERATISCKASQSVDYDGDSYMNWYQQKPGQPPKILIYDASNLESGIPARFSGSGSGTDFTLTISSLEPEDFAIYYCQQSNEDPWTFGGGTKVEIKR

Molecular target: T1, human C1s (active form) (human)
Experiment: cell-based or functional assay

Row | Binder | IC50 of inhibition of C3b deposition on antibody-sensitized human RBCs (flow cytometry, 5% human serum) [nM]
1 | B1 | 5
2 | B2 | 6.5
